Source: the supplement of paper PMC10567573

B1: KRT18 (parent)
chain: PQVRDWSHYFKIIEDLRAQIFANT
B2: RSPH3 (parent)
chain: QRLEEQERRHREEKERRKKQQWEI

Variants of: B1
Experiment: protein stability index of a GFP-peptide fusion (GPS, HEK-293T) (PSI 1-6); higher = more stable
Settings: c terminus: a fixed tail appended
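Note: lentivirally expressed fusions sorted by FACS into six bins by GFP to DsRed ratio, PSI derived from sequencing read proportions per bin multiplied by bin number.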

Protein stability index of substitutions, site by site:
K11: P 1.55
V3: M 1.84, A 1.71, G 2.13, C 2.41, L 2.88, T 2.24, Q 2.52, E 3.61
L16: V 1.96, F 1.53, A 2.17, E 2.63, S 2.03, N 2.62, W 2.05, Q 2.47, K 1.85

Variants of: B2
Experiment: as above
Settings: c terminus: a fixed tail appended

Protein stability index of substitutions, site by site:
R17: D 4.42, N 4.76, L 5.03, F 4.41, V 4.56, E 5.3, C 4.59, M 4.77, H 4.53, Y 4.96, Q 4.82, G 4.83, S 4.72, K 4.92, W 4.02, I 3.87, T 4.62, P 4.31
W22: H 4.97, Q 5.15, S 5.35, P 4.64, C 5.21, N 5.52, I 4.38, Y 4.88, V 5.34, T 5.67, L 5.22, F 4.97, M 4.88, D 5.52, E 5.75, G 5.48, R 5.43, A 5.13, K 5
Q21: P 4.6, W 4.48, D 5.22, N 4.67, E 5.39, R 4.46, T 4.68, V 4.01, F 4.46, C 4.17, H 4.39, L 4.53, M 4.02, S 3.71, K 4.71, A 4.43, G 4.61, Y 4.52, I 4.03
K19: V 4.59, I 4.08, W 3.89, M 4.79, D 4.98, C 4.9, L 4.59, R 4.78, Q 4.64, T 4.87, F 4.02, H 4.36, Y 4.47, G 4.33, S 4.77, E 4.98, N 4.59, P 4.62
K18: H 4.56, W 4.03, R 3.87, Y 3.59, G 4.71, E 4.6, D 4.59, C 4.32, M 4.6, Q 4.83, S 4.49, L 4.27, I 4.94, P 4.72, V 4.18, F 4.43, N 4.28, T 4.68, A 4.46
E23: R 4.69, C 4.03, M 4.2, Y 4.09, A 3.51, Q 3.95, K 4.42, S 3.9, V 3.18, P 4.26, N 4.19, I 3.6, T 3.96, D 4.91, H 4.39, G 4.46, F 3.42, L 4.21, W 3.67
Q20: L 4.35, V 3.64, Y 4.19, A 4.34, W 4.36, G 4.65, N 4.56, M 3.86, K 4.22, F 4.19, S 4.8, C 4.77, E 4.8, H 4.16, I 4.6, P 4.68, D 4.94, R 4.12
I24: G 4.83, R 5.14, Q 4.39, V 5.01, W 4.51, A 5, M 4.56, T 4.3, Y 4.82, N 4.68, E 5.04, D 5, S 4.76, H 4.46, K 4.25, P 5, L 4.78, C 4.48, F 4.34
